Test results from PMC4460818, “Regulation of NDR1 activity by PLK1 ensures proper spindle orientation in mitosis” (Scientific Reports, 2015).

B1: GST-Mob1A (natural protein, human (cDNA from HeLa), UniProt Q9H8S9 1-216, looked up)
chain: MSFLFSSRSSKTFKPKKNIPEGSHQYELLKHAEATLGSGNLRQAVMLPEGEDLNEWIAVNTVDFFNQINMLYGTITEFCTEASCPVMSAGPRYEYHWADGTNIKKPIKCSAPKYIDYLMTWVQDQLDDETLFPSKIGVPFPKNFMSVAKTILKRLFRVYAHIYHQHFDSVMQLQEEAHLNTSFKHFIFFVQEFNLIDRRELAPLQELIEKLGSKDR
notes: Mob1A; cDNA isolated by PCR from a HeLa cDNA library, cloned into pGEX-6P-1; Vector pGEX-6P-1, BamHI and SalI; also called recombinant Mob1A; source: E. coli, purified by glutathione-agarose beads
B2: MBP-NDR1^3E (enzyme)
chain: not shown
notes: NDR1 kinase, human, full length, phospho-mimicking mutant of the PLK1 sites Thr7, Thr183 and Thr407 (3E); glutamate is read from that name; Mutants were made on the siRNA-resistant NDR1 plasmid; also called phosphomimetic mutant NDR1^3E; source: E. coli, purified dissolved MBP-tagged protein
B3: MBP-NDR1^3A (enzyme)
chain: not shown
notes: NDR1 kinase, human, full length, Thr7, Thr183 and Thr407 mutated to alanines; Mutants were made on the siRNA-resistant (silent changes) NDR1 plasmid; source: E. coli, purified dissolved MBP-tagged protein

How the values were obtained:
MBP-NDR1 wild type = target: T1, MBP-NDR1 wild type (human, UniProt Q15208 1-465); experiment: pull-down; GST or GST-fusion protein on agarose beads incubated with purified dissolved MBP-tagged proteins in PBS, 0.1% Triton X-100, 0.5 mM DTT, 4 °C, 3-8 hours; SDS-PAGE, CBB stain; bands quantified by ImageJ for the Mob1A pull-down; conditions: both partners purified
T1 construct: NDR1 kinase, human, full length; cDNA isolated by PCR from a HeLa cDNA library; Vector pMAL-C2x; also called MBP-tagged NDR1; NDR1^WT; source: E. coli, purified by amylose beads, eluted by 10 mM maltose (told for MBP and the MBP-NDR1 mutants)
T1 sequence (Q15208 whole entry, the tested form may be a part): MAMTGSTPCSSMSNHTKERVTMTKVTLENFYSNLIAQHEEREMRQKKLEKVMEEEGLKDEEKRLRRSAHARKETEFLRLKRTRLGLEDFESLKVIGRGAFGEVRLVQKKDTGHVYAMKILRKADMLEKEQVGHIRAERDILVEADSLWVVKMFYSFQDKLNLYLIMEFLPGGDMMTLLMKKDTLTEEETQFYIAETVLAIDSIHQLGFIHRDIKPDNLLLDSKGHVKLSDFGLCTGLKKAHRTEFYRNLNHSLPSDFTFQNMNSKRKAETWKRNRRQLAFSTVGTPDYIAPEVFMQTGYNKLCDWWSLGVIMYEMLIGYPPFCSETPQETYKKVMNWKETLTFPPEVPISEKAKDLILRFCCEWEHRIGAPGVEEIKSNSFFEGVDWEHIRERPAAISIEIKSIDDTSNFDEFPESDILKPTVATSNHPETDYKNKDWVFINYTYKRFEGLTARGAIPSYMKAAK

GST-Mob1A = target: B1; experiment: as above; conditions: both partners purified

Binder: B1
binding result (MBP-NDR1 wild type): binds

Binder: B2
percent bound relative to NDR1^WT (GST-Mob1A): < 30%

Binder: B3
percent retained relative to NDR1^WT (GST-Mob1A): > 90%
